Laboratory results as given in the supplement of paper PMC10567573.

B1: ANKRD40 (parent)
chain: YQELLRVCCCELGVNPDQVEKIRK

Variants of: B1
Experiment: protein stability index of a GFP-peptide fusion (GPS, HEK-293T) (PSI 1-6); higher = more stable
Details: c terminus: a fixed tail appended
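Note: lentivirally expressed fusions sorted by FACS into six bins by GFP to DsRed ratio, PSI derived from sequencing read proportions per bin multiplied by bin number.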

Variant | protein stability index
YQELLRVCDCELGVNPDQVEKIRK | 3.15
YQELLRVCNCELGVNPDQVEKIRK | 2.15
YQELLRVCLCELGVNPDQVEKIRK | 1.55
YQELLRVCTCELGVNPDQVEKIRK | 2.23
YQELLRVCHCELGVNPDQVEKIRK | 2.15
YQELLRVCFCELGVNPDQVEKIRK | 3.38
YQELLRVCACELGVNPDQVEKIRK | 2.61
YQELLRVCWCELGVNPDQVEKIRK | 2.23
YQELLRVCECELGVNPDQVEKIRK | 2.35
YQELLRVCVCELGVNPDQVEKIRK | 1.82
YQELLRVCSCELGVNPDQVEKIRK | 2.14
YQELLRVCKCELGVNPDQVEKIRK | 2.23
YQELLRVCMCELGVNPDQVEKIRK | 1.81
YQELLRVCRCELGVNPDQVEKIRK | 2.31
YQELLRVCQCELGVNPDQVEKIRK | 2.27
YQELLRVCICELGVNPDQVEKIRK | 1.06
YQELLRVCYCELGVNPDQVEKIRK | 2.66
YQELLRVCGCELGVNPDQVEKIRK | 3.22
YQELLRVCPCELGVNPDQVEKIRK | 2.59
YQELLRVCCCEPGVNPDQVEKIRK | 2.55
YQELLRVCCCEYGVNPDQVEKIRK | 2.24
YQELLRVCCCENGVNPDQVEKIRK | 2.86
YQELLRVCCCEVGVNPDQVEKIRK | 1.64
YQELLRVCCCEKGVNPDQVEKIRK | 2.49

Variant | protein stability index
YQELLRVCCCEEGVNPDQVEKIRK | 2.75
YQELLRVCCCEGGVNPDQVEKIRK | 2.31
YQELLRVCCCESGVNPDQVEKIRK | 2.15
YQELLRVCCCEMGVNPDQVEKIRK | 2.05
YQELLRVCCCERGVNPDQVEKIRK | 1.7
YQELLRVCCCEDGVNPDQVEKIRK | 2.64
YQELLRVCCCEIGVNPDQVEKIRK | 2.21
YQELLRVCCCEAGVNPDQVEKIRK | 1.78
YQELLRVCCCEHGVNPDQVEKIRK | 1.88
YQELLRVCCCEWGVNPDQVEKIRK | 1.65
YQELLRVCCCECGVNPDQVEKIRK | 2.03
YQELLRVCCCEFGVNPDQVEKIRK | 2.21
YQELLRVCCCEQGVNPDQVEKIRK | 2.81
YQELLRVCCCELWVNPDQVEKIRK | 2.84
YQELLRVCCCELDVNPDQVEKIRK | 2.19
YQELLRVCCCELAVNPDQVEKIRK | 2.08
YQELLRVCCCELMVNPDQVEKIRK | 2.01
YQELLRVCCCELYVNPDQVEKIRK | 1.05
YQELLRVCCCELRVNPDQVEKIRK | 1.66
YQELLRVCCCELFVNPDQVEKIRK | 1.55
YQELLRVCCCELNVNPDQVEKIRK | 1.78
YQELLRVCCCELKVNPDQVEKIRK | 1.62
YQELLRVCCCELEVNPDQVEKIRK | 2.42
YQELLRVCCCELQVNPDQVEKIRK | 1.57

Variant | protein stability index
YQELLRVCCCELVVNPDQVEKIRK | 1.71
YQELLRVCCCELSVNPDQVEKIRK | 3.16
YQELLRVCCCELLVNPDQVEKIRK | 1.62
YQELLRVCCCELCVNPDQVEKIRK | 1.63
YQELLRVCCCELIVNPDQVEKIRK | 1.78
YQELLRVCCCELPVNPDQVEKIRK | 2.06
YQELLRVCCCELTVNPDQVEKIRK | 2.13
YQELLRVCCCELHVNPDQVEKIRK | 1.79
YQELLRVCCCLLGVNPDQVEKIRK | 2
YQELLRVCCCRLGVNPDQVEKIRK | 1.32
YQELLRVCCCMLGVNPDQVEKIRK | 2.03
YQELLRVCCCSLGVNPDQVEKIRK | 1.22
YQELLRVCCCWLGVNPDQVEKIRK | 1
YQELLRVCCCKLGVNPDQVEKIRK | 2.89
YQELLRVCCCYLGVNPDQVEKIRK | 1.27
YQELLRVCCCHLGVNPDQVEKIRK | 1.79
YQELLRVCCCDLGVNPDQVEKIRK | 1.89
YQELLRVCCCCLGVNPDQVEKIRK | 2.62
YQELLRVCCCNLGVNPDQVEKIRK | 1.76
YQELLRVCCCPLGVNPDQVEKIRK | 1.94
YQELLRVCCCALGVNPDQVEKIRK | 1.32
YQELLRVCCCILGVNPDQVEKIRK | 1.49
YQELLRVCCCGLGVNPDQVEKIRK | 1.86
YQELLRVCCCVLGVNPDQVEKIRK | 1.56

Variant | protein stability index
YQELLRVCCCFLGVNPDQVEKIRK | 2.19
YQELLRVCCCTLGVNPDQVEKIRK | 1.98
YQELLRVCCCELGVNPCQVEKIRK | 2.01
YQELLRVCCCELGVNPTQVEKIRK | 2.42
YQELLRVCCCELGVNPYQVEKIRK | 2.01
YQELLRVCCCELGVNPLQVEKIRK | 1.59
YQELLRVCCCELGVNPWQVEKIRK | 2.12
YQELLRVCCCELGVNPSQVEKIRK | 2.4
YQELLRVCCCELGVNPMQVEKIRK | 1.56
YQELLRVCCCELGVNPGQVEKIRK | 2.42
YQELLRVCCCELGVNPRQVEKIRK | 2.04
YQELLRVCCCELGVNPKQVEKIRK | 1.69
YQELLRVCCCELGVNPQQVEKIRK | 2.94
YQELLRVCCCELGVNPNQVEKIRK | 2.11
YQELLRVCCCELGVNPIQVEKIRK | 1.69
YQELLRVCCCELGVNPFQVEKIRK | 1.87
YQELLRVCCCELGVNPVQVEKIRK | 2.73
YQELLRVCCCELGVNPDQDEKIRK | 1.66
YQELLRVCCCELGVNPDQCEKIRK | 2.1
YQELLRVCCCELGVNPDQAEKIRK | 1.79
YQELLRVCCCELGVNPDQEEKIRK | 2.51
YQELLRVDCCELGVNPDQVEKIRK | 3.81
YQELLRVLCCELGVNPDQVEKIRK | 2.24
YQELLRVHCCELGVNPDQVEKIRK | 2.84

Variant | protein stability index
YQELLRVTCCELGVNPDQVEKIRK | 3.53
YQELLRVKCCELGVNPDQVEKIRK | 2.19
YQELLRVGCCELGVNPDQVEKIRK | 2.8
YQELLRVWCCELGVNPDQVEKIRK | 2.02
YQELLRVNCCELGVNPDQVEKIRK | 3.48
YQELLRVRCCELGVNPDQVEKIRK | 2.21
YQELLRVPCCELGVNPDQVEKIRK | 2.12
YQELLRVMCCELGVNPDQVEKIRK | 2.09
YQELLRVQCCELGVNPDQVEKIRK | 3.52
YQELLRVICCELGVNPDQVEKIRK | 2.38
YQELLRVYCCELGVNPDQVEKIRK | 2.09
YQELLRVSCCELGVNPDQVEKIRK | 3.33
YQELLRVECCELGVNPDQVEKIRK | 3.56
YQELLRVFCCELGVNPDQVEKIRK | 1.44
YQELLRVCCSELGVNPDQVEKIRK | 2.24
YQELLRVCCIELGVNPDQVEKIRK | 1.63
YQELLRVCCLELGVNPDQVEKIRK | 1.86
YQELLRVCCTELGVNPDQVEKIRK | 2.04
YQELLRVCCQELGVNPDQVEKIRK | 2.92
YQELLRVCCWELGVNPDQVEKIRK | 1.81
YQELLRVCCGELGVNPDQVEKIRK | 2.22
YQELLRVCCRELGVNPDQVEKIRK | 2.35
YQELLRVCCFELGVNPDQVEKIRK | 1.68
YQELLRVCCPELGVNPDQVEKIRK | 2.31

Variant | protein stability index
YQELLRVCCVELGVNPDQVEKIRK | 2.1
YQELLRVCCHELGVNPDQVEKIRK | 2.63
YQELLRVCCMELGVNPDQVEKIRK | 2.08
YQELLRVCCCELGVIPDQVEKIRK | 1.37
YQELLRVCCCELGVPPDQVEKIRK | 2.8
YQELLRVCCCELGVAPDQVEKIRK | 1.96
YQELLRVCCCELGVQPDQVEKIRK | 1.62
YQELLRVCCCELGVRPDQVEKIRK | 2.21
YQELLRVCCCELGVMPDQVEKIRK | 2.21
YQELLRVCCCELGVSPDQVEKIRK | 2.1
YQELLRVCCCELGVFPDQVEKIRK | 1.45
YQELLRVCCCELGVHPDQVEKIRK | 2.75
YQELLRVCCCELGVEPDQVEKIRK | 2.27
YQELLRVCCCELGVKPDQVEKIRK | 2.08
YQELLRVCCCELGVTPDQVEKIRK | 3.74
YQELLRVCCCELGVYPDQVEKIRK | 1.78
YQELLRVCCCELGVLPDQVEKIRK | 1.39
YQELLRVCCCELGVGPDQVEKIRK | 1.26
YQELLRVCCCELGVCPDQVEKIRK | 1.63
YQELLRVCCCELGVDPDQVEKIRK | 2.08
YQELLRVCCCELGVNYDQVEKIRK | 1.99
YQELLRVCCCELGVNDDQVEKIRK | 2.86
YQELLRVCCCELGVNCDQVEKIRK | 2.52
YQELLRVCCCELGVNKDQVEKIRK | 2.26

Variant | protein stability index
YQELLRVCCCELGVNFDQVEKIRK | 1.14
YQELLRVCCCELGVNNDQVEKIRK | 2.4
YQELLRVCCCELGVNMDQVEKIRK | 1.5
YQELLRVCCCELGVNEDQVEKIRK | 2.14
YQELLRVCCCELGVNTDQVEKIRK | 1.29
YQELLRVCCCELGVNIDQVEKIRK | 1.52
YQELLRVCCCELGVNQDQVEKIRK | 2.5
YQELLRVCCCELGVNSDQVEKIRK | 2.06
YQELLRVCCCELGVNHDQVEKIRK | 1.43
YQELLRVCCCELGVNRDQVEKIRK | 2.41
YQELLRVCCCELGVNLDQVEKIRK | 2.11
YQELLRVCCCELGVNADQVEKIRK | 1.81
YQELLRVCCCELGANPDQVEKIRK | 1.99
YQELLRVCCCELGHNPDQVEKIRK | 2.22
YQELLRVCCCELGSNPDQVEKIRK | 2.32
YQELLRVCCCELGYNPDQVEKIRK | 2.13
YQELLRVCCCELGQNPDQVEKIRK | 1.72
YQELLRVCCCELGPNPDQVEKIRK | 2.02
YQELLRVCCCELGNNPDQVEKIRK | 1.85
YQELLRVCCCELGENPDQVEKIRK | 2.72
YQELLRVCCCELGINPDQVEKIRK | 1.61
YQELLRVCCCELGTNPDQVEKIRK | 1.99
YQELLRVCCCELGDNPDQVEKIRK | 2.88
YQELLRVCCCELGCNPDQVEKIRK | 2.08

Variant | protein stability index
YQELLRVCCCELGMNPDQVEKIRK | 2.07
YQELLRVCCCELGLNPDQVEKIRK | 2.18
YQELLRVCCCELGFNPDQVEKIRK | 2.27
YQELLRVCCCELGRNPDQVEKIRK | 1.5
YQELLRVCCCELGVNPDDVEKIRK | 2.73
YQELLRVCCCELGVNPDCVEKIRK | 1.52
YQELLRVCCCELGVNPDFVEKIRK | 1.01
YQELLRVCCCELGVNPDMVEKIRK | 2.02
YQELLRVCCCELGVNPDLVEKIRK | 1.67
YQELLRVCCCELGVNPDGVEKIRK | 2.02
YQELLRVCCCELGVNPDSVEKIRK | 2.08
YQELLRVCCCELGVNPDNVEKIRK | 2.32
YQELLRVCCCELGVNPDTVEKIRK | 2.16
YQELLRVCCCELGVNPDPVEKIRK | 1.4
YQELLRVCCCELGVNPDVVEKIRK | 1.8
YQELLRVCCCELGVNPDYVEKIRK | 1.19
YQELLRVCCCELGVNPDHVEKIRK | 1.48
YQELLRVCCCELGVNPDIVEKIRK | 1.89
YQELLRVCCCELGVNPDAVEKIRK | 1.32
YQELLRVCCCELGVNPDEVEKIRK | 2.13
